Values joined by “and” are separate entries in the source; they are usually repeats but may differ in a detail not shown here. Identical values can stand only once.
Assays:
[1] = target: MHCI-related protein 1 (MR1) with β2m, loaded with 5-(2-oxopropylideneamino)-6-d-ribitylaminouracil (human) (UniProt Q95460); assay: SPR; BIAcore T200, CM5 chip with streptavidin; biotinylated pMHCI, MR1 or CD1 captured; serial dilution of CD8-Fc fusion injected; 25°C, PBS with 0.005% Tween 20; steady-state responses, 1:1 Langmuir fit
[2] = target: MHCI-related protein 1 (MR1) with β2m, loaded with 5-formyl salicylic acid (human) (UniProt Q95460); assay: as above
[3] = target: MHCI-related protein 1 (MR1) with β2m, loaded with 6-formylpterin (human) (UniProt Q95460); assay: as above
[4] = target: MHCI-related protein 1 (MR1) with β-2 microglobulin, biotinylated, loaded with model ligands (UniProt Q95460); assay: SPR; biotinylated ligands (pMHCI, MR1, CD1) captured on streptavidin coupled to a CM5 chip; serial dilution of each CD8-Fc fusion injected; steady-state responses, 1:1 Langmuir fit; BIAcore T200, 25°C, PBS with 0.005% Tween 20
[5] = target: HLA-A*03:01 with peptide […]; assay: SPR
[6] = target: HLA-A*24:02 peptide-MHC class I (biotinylated pMHCI); assay: SPR; biotinylated ligands (pMHCI, MR1, CD1) captured on streptavidin coupled to a CM5 chip; serial dilution of each CD8-Fc fusion injected; steady-state responses, 1:1 Langmuir fit; BIAcore T200, 25°C, PBS with 0.005% Tween 20

Substance | Kd [1] | Kd [2] | Kd [3] | Kd [4] | Kd [5] | Kd [6]
soluble human CD8αα-Fc homodimer (from UniProt P01732 22-182) (Fc fusion) | 248 µM and 274 µM | 222 µM and 236 µM | 248 µM and 280 µM | 250 µM |  | 
soluble human CD8αβ-Fc heterodimer (from UniProt P01732 22-182; P10966 22-170) (Fc fusion) |  |  |  |  | 127 µM | 230 µM
